According to patent US20060068465:

Target: GST-Ub52 fusion protein [GST: P08515]
Sequence (P08515 whole entry, looked up, the tested form may be a part): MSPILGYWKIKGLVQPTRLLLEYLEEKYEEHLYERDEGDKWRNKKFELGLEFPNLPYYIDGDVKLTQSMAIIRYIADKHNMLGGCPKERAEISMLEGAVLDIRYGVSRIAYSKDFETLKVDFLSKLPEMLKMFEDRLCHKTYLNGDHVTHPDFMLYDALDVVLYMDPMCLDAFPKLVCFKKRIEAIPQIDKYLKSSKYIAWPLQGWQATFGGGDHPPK

B1: synaptic USP (synUSP), full length (protein)
chain: MAPRLQLEKAAWRWAETVRPEEVSQEHIETAYRIWLEPCIRGVCRRNCRGNPNCLVGIGEHIWLGEIDENSFHNIDDPNCERRKKNSFVGLTNLGASCYVNTFLQVWFLNLELRQALYLCPSTCSDYTKGDGIRGGKDYEPQTICEHLQYLFALLQNSNRRYIDPSGFVKALGLDTGQQQDAQESSKLFMSLLEDTLSKQKNPDVRNVVQQQFCGEYAYVTVCSQCGRESKLVSKFYELELNIQGHKQLTDCISEFLKEERLEGDNRYFCENCQSKQNATRKIRLLSLPCTLNLQLMRFVFDRQTGHKKKLNAYIGFSESLDMEPYVEHKGGSFVYELSAVLIHRGVSAYSGHYIAHVKDPQSGDWYKFNDEDIEKMEGKKLQLGIEEDLTEPSKSQTRKPKCGKGTHCSRNAYMLVYRLQTQEKNHTMVQVPAFLQELVDRDNSKFEEWCVEMAEMRRQSVDKGRAKHEEVKELYQRLPAGAEPYEFVSLEWLQKWLDESTPTKPIDNNACLCSHDKLHPDKISIMKRISEYAADIFYSRYGGGPRLTVKALCKDCVVERCRILRLKNQLNEDYKTVNNLLKATMKGSDGFWVGKSSLRSWRQLALEQLDEQDGEAEQSNGKINGSPFSKDESKEEKKEEEEELNFNEDILCPHGELSISENERRLVSQEAWSKLQQYFPKAPEFPSYKECCSQCKILEREGEENEALHKMIAKEQKTSLPNLFQDKNRPCLSNWPEDTDALYIVSHFFLDEWRKFVRKPARSTPVSSVGNAALLCPHGGLMFTFPSLTKEDSKLIALIWPSEWQMIQKLFVVDKVIKITRIEVGDVNPSQTQYISEPNLCPDCREGLLCQQQKDLREYTQATIYVHKVVDNKKVMKDSAPELNVSSSETEEDKEEAKPDGEKDPDFNQSNGGTKRQKTSQQGYVAYQKQVIRRSTRHRKVRGEKALLVSANQTLKELKIQIMHAFSVAPFDQNLSIDGKILNDDCATLGTLGVIPESVILLKADEPIADYAAMDDVMQVCMPEEGFKGTGLLGH
For B1, the “USP activity: cleavage of GST-Ub52 on co-expression in E. coli, SDS-PAGE with Coomassie staining” value (“USP activity: cleavage of GST-Ub52” for short) was “the amount of the GST-Ub52 protein of 45 kDa decreased, and the proteolysis product of 30 kDa markedly increased along with it”.

B2: synUSP in which Cys98 was replaced with Ala (protein)
chain: MAPRLQLEKAAWRWAETVRPEEVSQEHIETAYRIWLEPCIRGVCRRNCRGNPNCLVGIGEHIWLGEIDENSFHNIDDPNCERRKKNSFVGLTNLGASAYVNTFLQVWFLNLELRQALYLCPSTCSDYTKGDGIRGGKDYEPQTICEHLQYLFALLQNSNRRYIDPSGFVKALGLDTGQQQDAQESSKLFMSLLEDTLSKQKNPDVRNVVQQQFCGEYAYVTVCSQCGRESKLVSKFYELELNIQGHKQLTDCISEFLKEERLEGDNRYFCENCQSKQNATRKIRLLSLPCTLNLQLMRFVFDRQTGHKKKLNAYIGFSESLDMEPYVEHKGGSFVYELSAVLIHRGVSAYSGHYIAHVKDPQSGDWYKFNDEDIEKMEGKKLQLGIEEDLTEPSKSQTRKPKCGKGTHCSRNAYMLVYRLQTQEKNHTMVQVPAFLQELVDRDNSKFEEWCVEMAEMRRQSVDKGRAKHEEVKELYQRLPAGAEPYEFVSLEWLQKWLDESTPTKPIDNNACLCSHDKLHPDKISIMKRISEYAADIFYSRYGGGPRLTVKALCKDCVVERCRILRLKNQLNEDYKTVNNLLKATMKGSDGFWVGKSSLRSWRQLALEQLDEQDGEAEQSNGKINGSPFSKDESKEEKKEEEEELNFNEDILCPHGELSISENERRLVSQEAWSKLQQYFPKAPEFPSYKECCSQCKILEREGEENEALHKMIAKEQKTSLPNLFQDKNRPCLSNWPEDTDALYIVSHFFLDEWRKFVRKPARSTPVSSVGNAALLCPHGGLMFTFPSLTKEDSKLIALIWPSEWQMIQKLFVVDKVIKITRIEVGDVNPSQTQYISEPNLCPDCREGLLCQQQKDLREYTQATIYVHKVVDNKKVMKDSAPELNVSSSETEEDKEEAKPDGEKDPDFNQSNGGTKRQKTSQQGYVAYQKQVIRRSTRHRKVRGEKALLVSANQTLKELKIQIMHAFSVAPFDQNLSIDGKILNDDCATLGTLGVIPESVILLKADEPIADYAAMDDVMQVCMPEEGFKGTGLLGH
B2 was tested, and the “USP activity: cleavage of GST-Ub52” value was “The activity of synUSP disappeared by either replacing Cys98 with Ala”.

B3: yeast UBP2 (protein)
chain: MPNEDNELQKAIENHHNQLLNQDKENADRNGSVIEDLPLYGTSINQQSTPGDVDDGKHLLYPDIATNLPLKTSDRLLDDILCDTIFLNSTDPKVMQKGLQSRGILKESMLSYSTFRSSIRPNCLGSLTDQVVFQTKSEYDSISCPKYNKIHVFQAVIFNPSLAEQQISTFDDIVKIPIYHLKVSVKVRQELERLKKHVGVTQFHSLDHLHEYDRVDLSTFDSSDPNLLDYGIYVSDDTNKLILIEIFKPEFNSPEEHESFTADAIKKRYNAMCVKNESLDKSETPSQVDCFYTLFKIFKGPLTRKSKAEPTKTIDSGNLALNTHLNPEWLTSKYGFQASSEIDEETNEIFTEYVPPDMVDYVNDLETRKIRESFVRKCLQLIFWGQLSTSLLAPNSPLKNTKSVKGMSSLQTSFSTLPWFHLLGESRARILLNSNEQTHSPLDAEPHFINLSVSHYYTDRDIIRNYESLSSLDPENIGLYFDALTYIANRKGAYQLIAYCGKQDIIGQEALENALLMFKINPKECNISELNEATLLSIYKYETSNKSQVTSNHLTNLKNALRLLAKYTKSDKLKFYVDHEPYRALSQAYDTLSIDESVDEDIIKTAYSVKINDSPGLKLDCDRALYTIAISKRSLDLFNFLTEECPQFSNYYGPEKLDYQEALKLLQVNENASDETILKIFKQKWFDENVYEPDQFLILRAALTKISIERNSTLITNFLLTGTIDPNSLPPENWPTGINNIGNTCYLNSLLQYYFSIAPLRRYVLEYQKTVENFNDHLSNSGHIRRIGGREISRGEVERSIQFIYQLRNLFYAMVHTRERCVTPSKELAYLAFAPSNVEVEFEVEGNKVVDQTGVLSDSKKETTDDAFTTKIKDTSLIDLEMEDGLNGDVGTDANRKKNESNDAEVSENEDTTGLTSPTRVAKISSDQLENALEMGRQQDVTECIGNVLFQIESGSEPIRYDEDNEQYDLVKQLFYGTTKQSIVPLSATNKVRTKVERFLSLLINIGDHPKDIYDAFDSYFKDEYLTMEEYGDVIRTVAVTTFPTILQVQIQRVYYDRERLMPFKSIEPLPFKEVIYMDRYADTENPLLLAKKKETEEMKQKLKVMKNRQRELLSRDDSGLTRKDAFLESIKLLESDTIKKTPLKIEAANDVIKTLRNNVQNIDNELMKLYNDINSLEEKISHQFDDFKEYGYSLFSVFIHRGEASYGHYWIYIKDRNRNGIWRKYNDETISEVQEEEVFNFNEGNTATPYFLVYVKQGQEGDIEPLKRILK
In the case of B3, the “USP activity: cleavage of GST-Ub52” value is reported as “The GST-Ub52 protein was degraded to a band of 30 kDa by the co-expression of yeast USP2”.
